In US5616558A, “Medicaments comprising glicentin as active ingredient” (Nisshin Flour Milling Co., Ltd., priority 1992, dated 1997):

Assays:
[1] = tested on: male MALB/c mice; assay: intraperitoneal administration to mice, observation of appearance; assay type: in vivo; conditions: 10 mg/kg intraperitoneally, male MALB/c mice (6 weeks age)
[2] = tested on: arginine loaded dogs; assay: infusion into the pancreatic artery of arginine loaded dogs; plasma insulin, plasma glucagon and blood glucose measured; assay type: in vivo, mongrel dogs; conditions: 100 pmol or 400 pmol glicentin solution infused into the pancreatic artery for 10 minutes
Description: Healthy mongrel dogs weighing 13 to 17 kg were subjected to the test after an overnight fast (A. Ohneda et al., Hotre. Metab. Res., 9, 447-452 (1977)).
The animals were anesthetized with sodium pentobarbital (Nembutal®) and their abdomens were opened. […] After the operation was completed, saline solution containing 0.5% arginine was infused into the pancreatic artery at a constant rate of 2 ml/min through the cannula using an infusion pump. […] 4 ml portions of blood samples for hormone assay were collected at various intervals into a glass tube containing 1000 KIU aprotinine and 10 mg EDTA.
The plasma insulin was measured in accordance with a known method mentioned in C.
The blood glucose was measured for blood drawn from the femoral artery by the glucose oxidase method using a test kit for the determination of blood glucose (available from Wako Pure Chemical Industries, Japan under the trade name of "Glucose B-Test Wako").

B1: glicentin: peptide comprising 69 amino acid residues, major component of gut glucagon-like immunoreactants; produced by recombinant DNA in E. coli (protein)
chain: RSLQDTEEKSRSFSASQADPLSDPDQMNEDKRHSQGTFTSDYSKYLDSRRAQDFVQWLMNTKRNRNNIA
change in appearance [1]: no change in appearance | insulin secretion (plasma insulin, IRI) ([2]; 0.5% arginine infusion, anesthetized dogs): stimulates insulin secretion | glucagon level (IRG(G 21)) ([2]; antiserum G 21 specific for C-terminal portion of glucagon): not increased | blood glucose levels ([2]; blood from femoral artery, glucose oxidase method): no change
